Experimental data from PMC8937215.

Target: CCR6-NES-eLOV-TEVcs-FLAG-Gal4-V5 receiver construct, expressed in HEK293T cells

CCL20 sender construct (CCL20-18 aa linker-3xHA-pre-mGRASP), expressed in HEK293T cells (ligand)
TRACC UAS-mCherry reporter by confocal imaging, HEK293T in trans: percent of receiver cells in contact with sender cells with reporter expression above background: 80.2%
